Assay results from patent publication US6132722A, “Recombinant antibody-enzyme fusion proteins” (Bristol-Myers Squibb Company, priority 1998, dated 2000).

How the values were obtained:
[1] = system: 3677 melanoma xenografts; assay: In vivo therapy of established s.c. 3677 melanoma xenografts; set-up: species or system nude mice
Description: FIGS. 10A-10D. Therapeutic effects of L49-sFv-bL/CCM combinations in nude mice (six mice/group) with subcutaneous 3677 melanoma xenografts. Conjugates were injected, followed at various times by CCM (arrows on the X-axis). […] FIG. 10A. L49-sFv-bL (1 mg/kg/injection) 12 h before CCM. FIG. 10B. L49-sFv-bL (1 mg/kg/injection) 24 h before CCM. FIG. 10C. L49-sFv-bL (4 mg/kg/injection) 24 h before CCM. FIG. 10D. L49-sFv-bL (4 mg/kg/injection) 48 h before CCM.
In Vivo Therapy Experiments. 3677 tumor-bearing mice (subcutaneous implants, six animals/group, average tumor volume 130 mm^3) were injected with L49-sFv-bL (i.v., 7-8 days post tumor implant), followed 12-48 h later by CCM using doses of fusion protein and prodrug as indicated in the Results section. Treatment with L49-sFv-bL+CCM was repeated 1 week later. Animals were monitored 1-2 times/week for body weight, general health, and tumor growth. Tumor volume was estimated using the formula: longest length×perpendicular dimension^2 /2. Cures were defined as an established tumor that, after treatment, was not palpable for ≥10 tumor volume doubling delays (≥40 days in the 3677 tumor model). Maximum tolerated doses led to less than 20% weight loss, no treatment-related deaths, and were within 50% of the dose where such events took place.
Therapeutic Activity. In vivo therapy experiments were performed using the L49-sFv-bL/CCM combination in nude mice with established s.c. 3677 tumors. […] In the experiments reported here, conjugate treatment was initiated 7-8 days after tumor implant, at which time the tumors were approximately 130 mm^3 in volume. CCM was then administered 12, 24, or 48 h later, and the treatment protocol was repeated after 1 week. Maximum tolerated doses are defined as those that led to less than 20% weight loss, no treatment-related deaths, and were within 50% of the dose where such events took place. A tumor was considered as having been cured once it was not palpable for at least 10 tumor volume doubling times, based on the tumor growth of untreated animals (tumor volume doubling time was 4 days). If an animal was removed from the experiment because of tumor growth, the data from the entire group was no longer plotted, but the remaining animals were followed for tumor size and general health.

[2] = Tissue distribution of immunoconjugates in nude mice bearing s.c. 3677 melanoma xenografts; format: in vivo
Description: Conjugate Localization. Subcutaneous 3677 melanoma tumors were established in female athymic nu/nu mice (8-12 weeks old, Harlan Sprague-Dawley, Indianapolis, Ind.) by transplanting tumors that had been previously passaged as previously described (Kerr et al., Cancer Res., 55:3558-3563 (1995)). Tumor bearing mice were injected i.v. with L49-sFv-bL (1 or 4 mg mAb component/kg) or with L49-Fab'-bL (1.8 mg mAb component/kg). At various time intervals, the mice were anesthetized, bled through the orbital plexus, and sacrificed. Tissues were removed and homogenized in PBS containing 15 μg/ml aprotinin (2 mL/g tissue). To the homogenate was added 50 mM sodium phosphate containing 100 mM NaCl at pH 11.2 (10 ml/g tissue), and the suspension was mixed. After 20 min at room temperature, 3M sodium phosphate at pH 7.0 was added (2 ml/g tissue), and the mixture was mixed and centrifuged.
Quantification of conjugate concentrations was accomplished using a direct enzyme immunoassay. Polystyrene 96-well microtiter plates were coated with an affinity-purified rabbit polyclonal antisera to wild type E. cloacae bL (1 μg/ml), and were then blocked with specimen diluent (Genetic Systems Corp.). Serially diluted tissue extracts or purified samples (L49-sFv-bL as a standard for the fusion protein samples, L49-Fab'-bL as a standard for the L49-Fab'-bL samples) were added to the wells and allowed to bind for 3 h at room temperature. The plates were washed and developed by the addition of 0.1 ml of nitrocefin (O'Callaghan et al., Antimicrobial Agents and Chemotherapy, 1:283-288 (1972)) at 0.1 mM in PBS containing 1% dimethylformamide. Absorbance measurements were read in an ELISA plate reader using a 490 nm filter with 630 nm as the reference wavelength.
In Vivo Localization. Biodistribution studies of L49-sFv-bL and L49-Fab'-bL were carried out in nude mice bearing subcutaneous (s.c.) 3677 melanoma tumor xenografts. The conjugates were injected i.v., and at various time points tissues were removed and extracted under alkaline conditions to disrupt antigen-antibody interactions. The samples were then trapped a polyclonal antiserum to bL, and bL activity was measured using nitrocefin as a colorimetric indicator (O'Callaghan et al, Antimicrobial Agents and Chemotherapy, 1:283-288 (1972)).

[3] = L49-sFv-bL 1 mg/kg/injection, CCM 75 mg/kg/injection 12 h later

B1: L49-sFv-bL: recombinant fusion protein: L49 anti-p97 single-chain Fv (VH-218 linker-VL) fused to r2-1 mutant E. cloacae β-lactamase, SEQ ID NO: 20 (protein)
chain: MKYLLPTAAAGLLLLAAQPAMAEVQLQESGPSLVKPSQTLSLTCSVTGDSITSGYWNWIRKFPGNKLEYMGYISDSGITYYNPSLKSRISITRDTSKNQYYLQLNFVTAEDTATYNCARRTLATYYAMDYWGQGTSVTVSSGSTSGSGKPGSGEGSTKGDFVMTQTPLSLPVSLGDQASISCRASQSLVHSNGNTYLHWYLQKPGQSPKLLIYRVSNRFSGVPDRFSGSGSGTDFTLKISRVEAEDLGVYFCSQSTHVPPTFGGGTKLEIKRTPVSEKQLAEVVANTITPLMKAQSVPGMAVAVIYQGKPHYYTFGKADIAANKPVTPQTLFELGSISKTFTGVLGGDAIARGEISLDDAVTRYWPQLTGKQWQGIRMLDLATYTAGGLPLQVPDEVTDNASLLRFYQNWQPQWKPGTTRLYANASIGLFGALAVKPSGMPYEQAMTTRVLKPLKLDHTWINVPKAEEAHYAWGYRDGKAVRVSPGMLDAQAYGVKTNVQDMANWVMANMAPENVADASLKQGIALAQSRYWRIGSMYQGLGWEMLNWPVEANTVVETSFGNVALAPLPVAEVNPPAPPVKASWVHKTGSTGGFGSYVAFIPEKQIGIVMLANTSYPNPARVEAAYHILEALQTSEFE
toxicity ([1]; CCM 24 h post conjugate, both cases (FIG. 10B, 10C)): no evidence of toxicity
cures in the group of six mice [1, 3]: four
tumor response of the remaining two animals [1, 3]: partial regressions
tumor cures ([1]; L49-sFv-bL 1 mg/kg/injection, CCM 125 and 175 mg/kg/injection 12 h later, repeated after 1 week): all of the animals
tumors cured ([1]; L49-sFv-bL 1 mg/kg/injection, increased CCM dose 24 h later (FIG. 10B)): the majority of tumors were cured
animals cured, of six ([1]; L49-sFv-bL 4 mg/kg/injection, CCM 275 mg/kg/injection 48 h later): three
tumors cured ([1]; L49-sFv-bL 4 mg/kg/injection, CCM 24 h later (FIG. 10C)): the majority of tumors were cured
tumor regressions ([1]; L49-sFv-bL 4 mg/kg/injection, CCM 48 h later (FIG. 10D)): all of the mice
toxicity ([1]; L49-sFv-bL then CCM 75, 125 or 175 mg/kg/injection 12 h later): no apparent toxicities
tumor/tissue ratios Blood ([2]; 1 mg/kg i.v., 4 hrs): 13
tumor/tissue ratios Kidney ([2]; 1 mg/kg i.v., 4 hrs): 41
tumor/tissue ratios Liver ([2]; 1 mg/kg i.v., 4 hrs): 52
tumor/tissue ratios Spleen ([2]; 1 mg/kg i.v., 4 hrs): 79
tumor/tissue ratios Tumor ([2]; 1 mg/kg i.v., 4 hrs): 1
tumor/tissue ratios Blood ([2]; 1 mg/kg i.v., 12 hrs): 66
tumor/tissue ratios Kidney ([2]; 1 mg/kg i.v., 12 hrs): > 177
tumor/tissue ratios Liver ([2]; 1 mg/kg i.v., 12 hrs): > 177
tumor/tissue ratios Spleen ([2]; 1 mg/kg i.v., 12 hrs): > 177
tumor/tissue ratios Tumor ([2]; 1 mg/kg i.v., 12 hrs): 1
tumor/tissue ratios Blood ([2]; 1 mg/kg i.v., 24 hrs): 105
tumor/tissue ratios Kidney ([2]; 1 mg/kg i.v., 24 hrs): > 70
tumor/tissue ratios Liver ([2]; 1 mg/kg i.v., 24 hrs): > 70
tumor/tissue ratios Spleen ([2]; 1 mg/kg i.v., 24 hrs): > 70
tumor/tissue ratios Tumor ([2]; 1 mg/kg i.v., 24 hrs): 1
tumor/tissue ratios Blood ([2]; 4 mg/kg i.v., 12 hrs): 81
tumor/tissue ratios Kidney ([2]; 4 mg/kg i.v., 12 hrs): > 240
tumor/tissue ratios Liver ([2]; 4 mg/kg i.v., 12 hrs): > 240
tumor/tissue ratios Spleen ([2]; 4 mg/kg i.v., 12 hrs): > 240
tumor/tissue ratios Tumor ([2]; 4 mg/kg i.v., 12 hrs): 1
tumor/tissue ratios Blood ([2]; 4 mg/kg i.v., 24 hrs): 141
tumor/tissue ratios Kidney ([2]; 4 mg/kg i.v., 24 hrs): > 290
tumor/tissue ratios Liver ([2]; 4 mg/kg i.v., 24 hrs): > 290
tumor/tissue ratios Spleen ([2]; 4 mg/kg i.v., 24 hrs): > 290
tumor/tissue ratios Tumor ([2]; 4 mg/kg i.v., 24 hrs): 1
tumor/tissue ratios Blood ([2]; 4 mg/kg i.v., 48 hrs): 150
tumor/tissue ratios Tumor ([2]; 4 mg/kg i.v., 48 hrs): 1
tumor to blood ratios ([2]; 4 mg/kg, 24-48 h after the conjugate was administered): 141-151
